These results are taken from publication doi:10.1101/2022.04.06.487319 (bioRxiv, 2022).

T1: strep-Hop1 FL K593A (Saccharomyces cerevisiae, UniProt P20050 1-605, K593A)
T1 sequence (looked up): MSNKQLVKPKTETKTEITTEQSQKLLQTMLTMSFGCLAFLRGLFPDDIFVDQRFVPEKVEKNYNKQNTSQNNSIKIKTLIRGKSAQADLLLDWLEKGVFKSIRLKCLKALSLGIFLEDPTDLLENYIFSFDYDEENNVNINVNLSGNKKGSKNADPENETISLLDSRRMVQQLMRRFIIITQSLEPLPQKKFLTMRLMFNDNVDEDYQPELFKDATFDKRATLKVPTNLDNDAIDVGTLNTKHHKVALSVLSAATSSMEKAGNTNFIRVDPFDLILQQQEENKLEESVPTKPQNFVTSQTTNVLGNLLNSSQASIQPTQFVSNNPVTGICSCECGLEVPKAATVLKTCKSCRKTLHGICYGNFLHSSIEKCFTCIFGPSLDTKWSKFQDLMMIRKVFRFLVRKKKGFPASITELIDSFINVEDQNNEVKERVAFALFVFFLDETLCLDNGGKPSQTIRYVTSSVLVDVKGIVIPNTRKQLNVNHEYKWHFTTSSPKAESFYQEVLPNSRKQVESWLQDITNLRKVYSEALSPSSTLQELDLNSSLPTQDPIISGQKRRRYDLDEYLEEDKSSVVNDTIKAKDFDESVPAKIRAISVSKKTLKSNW

B1: strep-Hop1 (full length, Hop1-Red1 complex from Hi5 cells) (natural protein, Saccharomyces cerevisiae, UniProt P20050 1-605, looked up)
chain: T1 sequence (looked up) with A593K
B2: Red1^I743R-MBP (Hop1-Red1 complex from Hi5 cells) (natural protein, Saccharomyces cerevisiae, UniProt P14291 1-827, looked up)
chain: MEGLKKKIFGVCLKNDLAQTRNETKGIHYGLMTLETSKQLQEFLHLLVIKREVIQNFELLFHIINVAVKITDSNLPSDDIWHFILKLRFSSEINIDEDSKVLNYLLETGIAMENPVSWKCLAVISSILSSVPQSKKIITNLIETEHAKKIGQLFDNIQDLQQGNFLVEILSNCFKKSASNSKKVEKIPQLWQSRSKNKFFFENEFYPFSSKNGSLQTCQFLCNNFMSTLSFTGILRQVSYSGSETLKNLRIFKKKDDENSYFIQCIYNKIYLWLDEKAPLEFERKKIRITKNLKNKIQIKLRQPFHECVRTTADKTALLFNKTKGFQLEFEDEKLGETFFHNVNNIPKISEVQNFLVLDYIEEEPENEGEEEEQIGRADEQKEDEEEESLDELSTPMVYPIKSSIPHNHNEKVQLVTPDRSVSIRSDEWDLKSNTEDEEGNVLADLKISSTKETKRQTDYVHIDSEDQSPVVSAQMRKMRRESTKTLEILRQEFKDKDVQNKEDQSEQIQNPFVNTSSLVVGKSCLVNPKEKPNIDQTVVGITELKSNSSIKKRDINILDTIFGQPPSKKQKQFHKKEKKKQQKKLTNFKPIIDVPSQDKRNLRSNAPTKPKSIKVSKLRTDKKVTGEKSSPETAAEKVDDQTVRSNDEQAMSRATKEKCFPDVNEGKEITKDDAKVSLESKKNNETFVDSSVVEKHTPPDKDCNNCNITDILESTTVIDLQSPHGLSAPGQNTFTNKLQEQRYSSINHFSNELVRKISIINQELNKKILKELSEKYQKLFSELQDNFQNDTNEMLKFMGEIKDMMNLPEDQLVHAIRTRKFDNNKR
B3: MBP-Red1^733-819 (WT) (domain or fragment, Saccharomyces cerevisiae, UniProt P14291 733-819, looked up)
chain: NTFTNKLQEQIYSSINHFSNELVRKISIINQELNKKILKELSEKYQKLFSELQDNFQNDTNEMLKFMGEIKDMMNLPEDQLVHAIRT
B4: MBP-Red1^733-819/I743R (domain or fragment, Saccharomyces cerevisiae, UniProt P14291 733-819, looked up)
chain: B3 chain with I11R
B5: MBP-Red1^733-827/I743R (domain or fragment, Saccharomyces cerevisiae, UniProt P14291 733-827, looked up)
chain: NTFTNKLQEQRYSSINHFSNELVRKISIINQELNKKILKELSEKYQKLFSELQDNFQNDTNEMLKFMGEIKDMMNLPEDQLVHAIRTRKFDNNKR
B6: MBP-Red1^733-827 (coiled-coil, WT) (domain or fragment, Saccharomyces cerevisiae, UniProt P14291 733-827, looked up)
chain: B5 chain with R11I

Where a chain is given by its changes, count along the chain named. Names may count otherwise. “And” between values parts separate entries of the source, which are not always exact repeats. Equal entries are not always repeated.

The target in data set [1] is T1, strep-Hop1 FL K593A. The data set can be described thus: pull-down.
For data set [2], the target named is B2. In words: pull-down.
Data set [3] concerns the target B2. The data set can be described thus: cross-linking.
Data set [4] concerns the target B1. The data set can be described thus: mass photometry.
Data set [5] concerns the molecule itself. In words: mass photometry.
Data set [6] concerns the molecule itself. In words: SEC-MALS. A general note: SEC sorts molecules by how far they enter the pores of the column.

A word on the stoichiometry N: it is a count of units in the complex or per binding partner.

Regarding FHNVNNIPKISEVQNFLVLDYIE (peptide, UniProt P14291 340-362, looked up) [MBP-Red1 (340-362), wild-type closure motif], the binding result in data set [1] is “binds”.

For B1, the binding result in data set [2] and in data set [3] was “binds” each time.

B2: the “stoichiometry N” value in data set [4] came to 1.

For the molecule B3, in data set [5], the “stoichiometry N” value amounted to 4.

On to B4, for which the “stoichiometry N” value in data set [5] was determined as 4.

Regarding B5, the “stoichiometry N” value in data set [5] was 2; in data set [6], 4.

As for B6, the “stoichiometry N” value in data set [5] was 2 and 4.
